Holding throughout (test): BLI (Octet), binder on AHC sensor, 100 nM human antigen, 1:1 fit
(In general: Biolayer interferometry detects binding as a change in optical thickness at a sensor tip.)

One experiment has as its target T1, human HER3 (human, UniProt P21860 20-643).
T1 construct: Soluble antigen in Octet; bought; also called human HER3 (Acro ER3-H5223)

A further experiment concerns the target T2, human CD3 (human, UniProt P07766 23-126; P04234 22-105).
T2 construct: also called His-tagged human CD3; human CD3 (Acro CDD-H52W1)

A further experiment has as its target T3, human EGFR (human, UniProt P00533 25-645, limits assumed).
T3 construct: Soluble antigen in Octet; construct not described

B1: SI-75X5 (bispecific antibody, human IgG1, kappa, L234A L235A)
chain 1: QVQLQESGGRLVQPGEPLSLTCKTSGIDLSSNAIGWVRQAPGKGLEWIGVIFGSGNTYYASWAKGRFTISRSTSTVYLKMNSLRSEDTAIYYCARGGYSSDIWGQGTLVTVSSASTKGPSVFPLAPSSKSTSGGTAALGCLVKDYFPEPVTVSWNSGALTSGVHTFPAVLQSSGLYSLSSVVTVPSSSLGTQTYICNVNHKPSNTKVDKRVEPKSCDKTHTCPPCPAPEAAGGPSVFLFPPKPKDTLMISRTPEVTCVVVDVSHEDPEVKFNWYVDGVEVHNAKTKPREEQYNSTYRVVSVLTVLHQDWLNGKEYKCAVSNKALPAPIEKTISKAKGQPREPQVYTLPPSRDELTKNQVSLSCAVKGFYPSDIAVEWESNGQPENNYKTTPPVLDSDGSFFLVSKLTVDKSRWQQGNVFSCSVMHEALHNHYTQKSLSLSPG
chain 2: QSALTQPASVSGSPGQSITISCTGTSSDVGGYNFVSWYQQHPGKAPKLMIYDVSDRPSGVSDRFSGSKSGNTASLIISGLQADDEADYYCSSYGSSSTHVIFGGGTKVTVLGGGGSGGGGSGGGGSGGGGSQVQLQESGGGLVKPGGSLSLSCAASGFTFSSYWMSWVRQAPGKGLEWVANINRDGSASYYVDSVKGRFTISRDDAKNSLYLQMNSLRAEDTAVYYCARDRGVGYFDLWGRGTLVTVSSGGGGSGGGGSDPQLTQSPSSLSATVGQRVTINCQSSQSVAKNNNLAWFQQKPGKPPKLLIYSASTLAAGVPSRFSGSGSGTQFTLTITRVQSEDFATYYCSARDSGNIQSFGGGTRVEIKRTVAAPSVFIFPPSDEQLKSGTASVVCLLNNFYPREAKVQWKVDNALQSGNSQESVTEQDSKDSTYSLSSTLTLSKADYEKHKVYACEVTHQGLSSPVTKSFNRGECGGDKTHTCPPCPAPEAAGGPSVFLFPPKPKDTLMISRTPEVTCVVVDVSHEDPEVKFNWYVDGVEVHNAKTKPREEQYNSTYRVVSVLTVLHQDWLNGKEYKCAVSNKALPAPIEKTISKAKGQPREPQVYTLPPSRDELTKNQVSLWCLVKGFYPSDIAVEWESNGQPENNYKTTPPVLDSDGSFFLYSKLTVDKSRWQQGNVFSCSVMHEALHNRFTQKSLSLSPG
notes: bi-miniGNC, IgG1; D2 αHER3, D3 αCD3* (Fab); Chain B carries H435R/Y436F (Fc) and R19S (VH of the αHER3 scFv)
B1: the Kd (as a rule, the free concentration of one partner at which half of the binding sites on the other are occupied at equilibrium, for simple one-to-one binding) came out at 139 nM in the experiment with human HER3 and 44.4 nM with human CD3.

B2: SI-75X3 (other)
chain 1: EIVLTQSPSTLSVSPGERATFSCRASQSIGTNIHWYQQKPGKPPRLLIKYASESISGIPDRFSGSGSGTEFTLTISSVQSEDFAVYYCQQNNNWPTTFGPGTKLTVLGGGGSGGGGSGGGGSGGGGSQVQLQQSGPGLVKPSETLSITCTVSGFSLTNYGVHWIRQAPGKGLEWLGVIWSGGNTDYNTPFTSRFTITKDNSKNQVYFKLRSVRADDTAIYYCARALTYYDYEFAYWGQGTLVTVSSGGGGSGGGGSEVQLVESGGGLVQPGGSLRLSCAASGFTISTNAMSWVRQAPGKGLEWIGVITGRDITYYASWAKGRFTISRDNSKNTLYLQMNSLRAEDTAVYYCARDGGSSAITSNNIWGQGTLVTVSSASTKGPSVFPLAPSSKSTSGGTAALGCLVKDYFPEPVTVSWNSGALTSGVHTFPAVLQSSGLYSLSSVVTVPSSSLGTQTYICNVNHKPSNTKVDKRVEPKSCDKTHTCPPCPAPEAAGGPSVFLFPPKPKDTLMISRTPEVTCVVVDVSHEDPEVKFNWYVDGVEVHNAKTKPREEQYNSTYRVVSVLTVLHQDWLNGKEYKCAVSNKALPAPIEKTISKAKGQPREPQVYTLPPSRDELTKNQVSLSCAVKGFYPSDIAVEWESNGQPENNYKTTPPVLDSDGSFFLVSKLTVDKSRWQQGNVFSCSVMHEALHNHYTQKSLSLSPG
chain 2: QSALTQPASVSGSPGQSITISCTGTSSDVGGYNFVSWYQQHPGKAPKLMIYDVSDRPSGVSDRFSGSKSGNTASLIISGLQADDEADYYCSSYGSSSTHVIFGGGTKVTVLGGGGSGGGGSGGGGSGGGGSQVQLQESGGGLVKPGGSLSLSCAASGFTFSSYWMSWVRQAPGKGLEWVANINRDGSASYYVDSVKGRFTISRDDAKNSLYLQMNSLRAEDTAVYYCARDRGVGYFDLWGRGTLVTVSSGGGGSGGGGSDVVMTQSPSTLSASVGDRVTINCQASESISSWLAWYQQKPGKAPKLLIYEASKLASGVPSRFSGSGSGTEFTLTISSLQPDDFATYYCQGYFYFISRTYVNSFGGGTKVEIKRTVAAPSVFIFPPSDEQLKSGTASVVCLLNNFYPREAKVQWKVDNALQSGNSQESVTEQDSKDSTYSLSSTLTLSKADYEKHKVYACEVTHQGLSSPVTKSFNRGECGGDKTHTCPPCPAPEAAGGPSVFLFPPKPKDTLMISRTPEVTCVVVDVSHEDPEVKFNWYVDGVEVHNAKTKPREEQYNSTYRVVSVLTVLHQDWLNGKEYKCAVSNKALPAPIEKTISKAKGQPREPQVYTLPPSRDELTKNQVSLWCLVKGFYPSDIAVEWESNGQPENNYKTTPPVLDSDGSFFLYSKLTVDKSRWQQGNVFSCSVMHEALHNRFTQKSLSLSPG
notes: tri-miniGNC; D1 αEGFR, D2 αHER3, D3 αCD3 (Fab); also called tri-miniGNC (SI-75X3)
As to B2, the dissociation constant (Kd) with human HER3 was found to be 146 nM; in the experiment with human CD3, 18.2 nM; with human EGFR, 8.47 nM.

B3: SI-75X2 (bispecific antibody, human IgG1, kappa, L234A L235A)
chain 1: EVQLVESGGGLVQPGGSLRLSCAASGFTISTNAMSWVRQAPGKGLEWIGVITGRDITYYASWAKGRFTISRDNSKNTLYLQMNSLRAEDTAVYYCARDGGSSAITSNNIWGQGTLVTVSSASTKGPSVFPLAPSSKSTSGGTAALGCLVKDYFPEPVTVSWNSGALTSGVHTFPAVLQSSGLYSLSSVVTVPSSSLGTQTYICNVNHKPSNTKVDKRVEPKSCDKTHTCPPCPAPEAAGGPSVFLFPPKPKDTLMISRTPEVTCVVVDVSHEDPEVKFNWYVDGVEVHNAKTKPREEQYNSTYRVVSVLTVLHQDWLNGKEYKCAVSNKALPAPIEKTISKAKGQPREPQVYTLPPSRDELTKNQVSLSCAVKGFYPSDIAVEWESNGQPENNYKTTPPVLDSDGSFFLVSKLTVDKSRWQQGNVFSCSVMHEALHNHYTQKSLSLSPG
chain 2: QSALTQPASVSGSPGQSITISCTGTSSDVGGYNFVSWYQQHPGKAPKLMIYDVSDRPSGVSDRFSGSKSGNTASLIISGLQADDEADYYCSSYGSSSTHVIFGGGTKVTVLGGGGSGGGGSGGGGSGGGGSQVQLQESGGGLVKPGGSLSLSCAASGFTFSSYWMSWVRQAPGKGLEWVANINRDGSASYYVDSVKGRFTISRDDAKNSLYLQMNSLRAEDTAVYYCARDRGVGYFDLWGRGTLVTVSSGGGGSGGGGSDVVMTQSPSTLSASVGDRVTINCQASESISSWLAWYQQKPGKAPKLLIYEASKLASGVPSRFSGSGSGTEFTLTISSLQPDDFATYYCQGYFYFISRTYVNSFGGGTKVEIKRTVAAPSVFIFPPSDEQLKSGTASVVCLLNNFYPREAKVQWKVDNALQSGNSQESVTEQDSKDSTYSLSSTLTLSKADYEKHKVYACEVTHQGLSSPVTKSFNRGECGGDKTHTCPPCPAPEAAGGPSVFLFPPKPKDTLMISRTPEVTCVVVDVSHEDPEVKFNWYVDGVEVHNAKTKPREEQYNSTYRVVSVLTVLHQDWLNGKEYKCAVSNKALPAPIEKTISKAKGQPREPQVYTLPPSRDELTKNQVSLWCLVKGFYPSDIAVEWESNGQPENNYKTTPPVLDSDGSFFLYSKLTVDKSRWQQGNVFSCSVMHEALHNRFTQKSLSLSPG
notes: bi-miniGNC; D2 αHER3, D3 αCD3 (Fab); also called bi-miniGNC (SI-75X2)
For B3, the values for the Kd in the experiment with human HER3 and in the experiment with human CD3 were 162 nM and 27.8 nM, respectively.

B4: SI-75X1 (bispecific antibody, human IgG1, kappa, L234A L235A)
chain 1: EIVLTQSPSTLSVSPGERATFSCRASQSIGTNIHWYQQKPGKPPRLLIKYASESISGIPDRFSGSGSGTEFTLTISSVQSEDFAVYYCQQNNNWPTTFGPGTKLTVLGGGGSGGGGSGGGGSGGGGSQVQLQQSGPGLVKPSETLSITCTVSGFSLTNYGVHWIRQAPGKGLEWLGVIWSGGNTDYNTPFTSRFTITKDNSKNQVYFKLRSVRADDTAIYYCARALTYYDYEFAYWGQGTLVTVSSGGGGSGGGGSEVQLVESGGGLVQPGGSLRLSCAASGFTISTNAMSWVRQAPGKGLEWIGVITGRDITYYASWAKGRFTISRDNSKNTLYLQMNSLRAEDTAVYYCARDGGSSAITSNNIWGQGTLVTVSSASTKGPSVFPLAPSSKSTSGGTAALGCLVKDYFPEPVTVSWNSGALTSGVHTFPAVLQSSGLYSLSSVVTVPSSSLGTQTYICNVNHKPSNTKVDKRVEPKSCDKTHTCPPCPAPEAAGGPSVFLFPPKPKDTLMISRTPEVTCVVVDVSHEDPEVKFNWYVDGVEVHNAKTKPREEQYNSTYRVVSVLTVLHQDWLNGKEYKCAVSNKALPAPIEKTISKAKGQPREPQVYTLPPSRDELTKNQVSLSCAVKGFYPSDIAVEWESNGQPENNYKTTPPVLDSDGSFFLVSKLTVDKSRWQQGNVFSCSVMHEALHNHYTQKSLSLSPG
chain 2: DVVMTQSPSTLSASVGDRVTINCQASESISSWLAWYQQKPGKAPKLLIYEASKLASGVPSRFSGSGSGTEFTLTISSLQPDDFATYYCQGYFYFISRTYVNSFGGGTKVEIKRTVAAPSVFIFPPSDEQLKSGTASVVCLLNNFYPREAKVQWKVDNALQSGNSQESVTEQDSKDSTYSLSSTLTLSKADYEKHKVYACEVTHQGLSSPVTKSFNRGECGGDKTHTCPPCPAPEAAGGPSVFLFPPKPKDTLMISRTPEVTCVVVDVSHEDPEVKFNWYVDGVEVHNAKTKPREEQYNSTYRVVSVLTVLHQDWLNGKEYKCAVSNKALPAPIEKTISKAKGQPREPQVYTLPPSRDELTKNQVSLWCLVKGFYPSDIAVEWESNGQPENNYKTTPPVLDSDGSFFLYSKLTVDKSRWQQGNVFSCSVMHEALHNRFTQKSLSLSPG
notes: bi-miniGNC; D1 αEGFR, D3 αCD3 (Fab)
On to B4, for which the values for the dissociation constant (Kd) with human CD3 and with human EGFR were 24 nM and 8.11 nM, respectively.
